# Reference: publication PMC8882607 (Journal of Molecular Biology, 2022)
# Key:
# Assay in all cases: ITC
# [1] = molecular target: G3BP1_(NTF2) V11A mutant (human, UniProt Q13283 1-139, V11A)
# [2] = molecular target: G3BP1_(NTF2) F124A mutant (human, UniProt Q13283 1-139, F124A)
# [3] = molecular target: G3BP1_(NTF2) Q18A mutant (human, UniProt Q13283 1-139, Q18A)
# [4] = molecular target: G3BP1_(NTF2) F33A mutant (human, UniProt Q13283 1-139, F33A)
# [5] = molecular target: NTF2-like domain of human G3BP1 (residues 1-139) (human, UniProt Q13283 1-139)
# Chain of NTF2-like domain of human G3BP1 (residues 1-139) (Q13283 1-139): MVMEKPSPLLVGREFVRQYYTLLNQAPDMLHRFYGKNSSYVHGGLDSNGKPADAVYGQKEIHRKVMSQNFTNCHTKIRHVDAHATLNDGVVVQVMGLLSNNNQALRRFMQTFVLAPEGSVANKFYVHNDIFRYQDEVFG
# Chain of G3BP1_(NTF2) V11A mutant (Q13283 1-139 V11A): as the sequence (Q13283 1-139) above, with V11A counted along it
# Chain of G3BP1_(NTF2) F124A mutant (Q13283 1-139 F124A): as the sequence (Q13283 1-139) above, with F124A counted along it
# Chain of G3BP1_(NTF2) Q18A mutant (Q13283 1-139 Q18A): as the sequence (Q13283 1-139) above, with Q18A counted along it
# Chain of G3BP1_(NTF2) F33A mutant (Q13283 1-139 F33A): as the sequence (Q13283 1-139) above, with F33A counted along it
binder,measurement,setting,value
MSDNGPQNQRNAPRITFGGPSDSTG [SARS-CoV-2 N_(1–25) peptide (residues 1-25 of the N protein)],fold reduction of binding against wild-type G3BP1_(NTF2),[1],~10 fold
same,fold reduction of binding against wild-type G3BP1_(NTF2),[2],~20 fold
same,dH,[3],-15.1 kcal/mol
same,dH,[4],-21.3 kcal/mol
"MSDNGPQNQRNAPRATFGGPSDSTG [SARS-CoV-2 N_(1–25) peptide, I15A mutant]",fold reduction of binding against wild-type N_(1–25),[5],> 10 fold
"MSDNGPQNQRNAPRIAFGGPSDSTG [SARS-CoV-2 N_(1–25) peptide, T16A mutant]",fold reduction of binding against wild-type N_(1–25),[5],~3 fold
"MSDNGPQNQRNAPRITFTGPSDSTG [SARS-CoV-2 N_(1–25) peptide, G18T mutant]",fold reduction of binding affinity against wild-type N_(1–25),[5],~6 fold
